Data: paper PMC7859323
Values joined by “and” are separate entries in the source; they are usually repeats but may differ in a detail not shown here. Equal values may be shown once.

Target: Gla domainless factor VIIa (human) (UniProt P08709)
Experiment: titration of enzyme activity (rate of FX activation by des Gla-FVIIa)

Sequence of UniProt P08709 (P08709 21-466, chain 1 of 2): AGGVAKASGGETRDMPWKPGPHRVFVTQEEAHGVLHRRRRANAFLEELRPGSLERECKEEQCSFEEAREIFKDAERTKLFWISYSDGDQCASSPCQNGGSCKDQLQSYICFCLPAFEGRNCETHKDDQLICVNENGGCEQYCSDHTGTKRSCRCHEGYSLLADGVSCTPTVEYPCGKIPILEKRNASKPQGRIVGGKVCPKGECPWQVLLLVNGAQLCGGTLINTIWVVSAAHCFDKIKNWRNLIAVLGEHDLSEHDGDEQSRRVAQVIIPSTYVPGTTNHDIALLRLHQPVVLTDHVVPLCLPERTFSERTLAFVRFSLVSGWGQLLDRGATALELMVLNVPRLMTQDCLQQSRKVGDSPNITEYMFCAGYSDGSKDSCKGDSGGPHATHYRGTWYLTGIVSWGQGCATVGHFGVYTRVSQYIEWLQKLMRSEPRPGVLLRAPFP
Sequence of UniProt P08709 (P08709 213-466, chain 2 of 2): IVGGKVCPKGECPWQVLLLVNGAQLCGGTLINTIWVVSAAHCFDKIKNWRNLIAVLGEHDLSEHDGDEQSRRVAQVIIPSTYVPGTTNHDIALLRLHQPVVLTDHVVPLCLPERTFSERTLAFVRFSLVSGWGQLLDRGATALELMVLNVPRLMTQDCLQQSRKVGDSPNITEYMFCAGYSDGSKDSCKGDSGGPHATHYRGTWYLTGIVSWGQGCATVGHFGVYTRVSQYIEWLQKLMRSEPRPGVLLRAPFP

With “recombinant soluble tissue factor (from UniProt P13726 33-251) (domain or fragment)” the Kd was 5 nM and 2.7 nM.
